Assay results taken from the supplement of paper PMC7125110.
± gives the standard error. Variants at the floor of the assay were thinned out.

B1: glmS ribozyme (parent)
chain: AUAAAAGCGCCAGAACUACAGAAAUGUAGUUGACGAGGAGGAGGUUUAUCGAAUUUUCGGCGGAUGCCUCCAAA

Assays:
Conditions in all cases: with glucosamine-6-phosphate
glucosamine-6-phosphate [1] = variants of: B1; assay: self-cleavage kobs at 640 uM GlcN6P; higher = faster cleavage; RNA array
Summary of the method: (§1)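 Barcoded ribozyme variants on sequenced MiSeq chips were transcribed in situ by E. coli RNA polymerase and followed at 37 °C through a hybridised Cy3 probe. Glucosamine-6-phosphate at 40 μM to 10 mM in HEPES/KCl/Mg(OAc)2 buffer was flowed in, and tiles were imaged over ~14 h. Signals were normalised to baseline and to non-cleaving reference variants, and per-tile medians were fit to one- or two-exponential decays to give kobs. Weighted Michaelis–Menten fits across concentrations gave kcat and KM.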

glucosamine-6-phosphate [2] = variants of: B1; assay: self-cleavage kobs at 2500 uM GlcN6P; higher = faster cleavage; RNA array
Summary of the method: as §1

glucosamine-6-phosphate [3] = variants of: B1; assay: self-cleavage kobs at 10000 uM GlcN6P; higher = faster cleavage; RNA array
Summary of the method: as §1

Variant | self-cleavage kobs at 640 uM GlcN6P (glucosamine-6-phosphate [1]) [s⁻¹] | self-cleavage kobs at 2500 uM GlcN6P (glucosamine-6-phosphate [2]) [s⁻¹] | self-cleavage kobs at 10000 uM GlcN6P (glucosamine-6-phosphate [3]) [s⁻¹]
C10G C58U G63U | < 1e-05 |  | 
G7C A42U A53U C67G | < 1e-05 |  | 
A33U G35A A39G G44U C61U G62U | < 1e-05 | < 1e-05 | 
A6G A52C C58G G63A G66C | < 1e-05 | < 1e-05 | 
C11A A36U U47C | < 1e-05 | < 1e-05 | 
A53G U57C | 0.000146 ± 4.6e-05 | 0.000159 ± 4.1e-05 | 0.0005 ± 8.7e-05
G37C G40A C50G | < 1e-05 | < 1e-05 | 
C50G G62A C68G | 0.000159 ± 4.6e-05 |  | 0.000111 ± 2.9e-05
G38U U46A G59A C70A | < 1e-05 | < 1e-05 | 
U31G G44A U46A G62C | < 1e-05 | < 1e-05 | 
C34A G41C C70U | < 1e-05 |  | 
C11G G59C C67G | 0.000111 ± 4e-05 | 0.00023 ± 6.2e-05 | 
C10G C11A C58A G66U | < 1e-05 |  | 
C8A U47C G51A | < 1e-05 | < 1e-05 | 
A14U A36C G37A G38A | < 1e-05 |  | 
G41C U47G G59U | < 1e-05 | < 1e-05 | 
G29C C58U U69A | 5.92e-05 ± 2.8e-05 |  | 
C8A G13U C58A U65G C67G | < 1e-05 |  | 
A36C G43U U45G U46C U65G | < 1e-05 | < 1e-05 | 
A15C G41C A48G | < 1e-05 |  | 
U31A A33U U55A C58G | < 1e-05 | < 1e-05 | 
G40A U65G G66U | 0.00012 ± 2.6e-05 | 0.000547 ± 0.00026 | 
A33U C34G | < 1e-05 | < 1e-05 | < 1e-05
C34G G41U G51C C71G | < 1e-05 |  | 
G32C U56A | 3.99e-05 ± 1.8e-05 | 2.05e-05 ± 9.8e-06 | 5.18e-05 ± 7.3e-06
A53G U55A U65G | 0.000667 ± 8.4e-05 | 0.00174 ± 0.00031 | 

Variant | self-cleavage kobs at 640 uM GlcN6P (glucosamine-6-phosphate [1]) [s⁻¹] | self-cleavage kobs at 2500 uM GlcN6P (glucosamine-6-phosphate [2]) [s⁻¹] | self-cleavage kobs at 10000 uM GlcN6P (glucosamine-6-phosphate [3]) [s⁻¹]
G35C G37C A39C G63C | < 1e-05 | < 1e-05 | 
C10U G29A C34G C50A G63A G66C | < 1e-05 |  | 
G29C G35A G41C G63U C68G | < 1e-05 |  | 
C34U A39C A53U | < 1e-05 | < 1e-05 | 
A14C U30C G38U A39U A53U U55G | < 1e-05 | < 1e-05 | 
G26U C71A | 0.000733 ± 0.0002 | 0.000394 ± 0.0001 | 
G32U A52C C61U | < 1e-05 |  | 
G29A A53G C68G | 7.36e-05 ± 2.4e-05 | 7.42e-05 ± 2e-05 | 
A15C C50U G51A G62U U69C | 3.56e-05 ± 1.7e-05 |  | 
G41U A53U U56G G66A | 5.34e-05 ± 1.9e-05 | 0.000221 ± 4.9e-05 | 
A6G A52G G60A | < 1e-05 | < 1e-05 | 
G7A C8G A14U U65G | < 1e-05 | < 1e-05 | < 1e-05
A15G G29A G63C | < 1e-05 |  | 
C16A U55G C58G U65G | < 1e-05 |  | 
A36U G40U A42G | < 1e-05 |  | 
C8G G13U A33U U57G | < 1e-05 | < 1e-05 | 
G41C G44A C70G | 0.00128 ± 0.00037 | 0.00311 ± 0.00077 | 
A42G A53U C67G | 0.00199 ± 0.00049 |  | 0.00458 ± 0.0017
G44U G51A C68U | < 1e-05 | < 1e-05 | 
G13C G40U G60U | < 1e-05 |  | < 1e-05
A36U G43U | < 1e-05 | < 1e-05 | 
G29C G32C A52C C68G | 8.66e-05 ± 3.9e-05 |  | 
G43A C50A | < 1e-05 |  | 
U55G G66A C70G | 0.000126 ± 2.1e-05 | 0.000206 ± 4.7e-05 | 
G7U G35C A39U U65C | < 1e-05 |  | 
A6G A48U C61U | < 1e-05 | < 1e-05 | 

Variant | self-cleavage kobs at 640 uM GlcN6P (glucosamine-6-phosphate [1]) [s⁻¹] | self-cleavage kobs at 2500 uM GlcN6P (glucosamine-6-phosphate [2]) [s⁻¹] | self-cleavage kobs at 10000 uM GlcN6P (glucosamine-6-phosphate [3]) [s⁻¹]
G40U G43U A48C U56A U65A | < 1e-05 |  | 
G35C G60A C71U | < 1e-05 |  | 
U46C A48U C50G G51U | < 1e-05 | < 1e-05 | < 1e-05
C11G C50G C61U | 7.22e-05 ± 3.5e-05 | 6.44e-05 ± 2.1e-05 | 
C8U U46G G51U G66U C70G C71U | < 1e-05 |  | 
A6U C16U U47A | 6.84e-05 ± 2.1e-05 | 0.000103 ± 3.5e-05 | 
G29U U55A A64G | 0.000889 ± 0.00022 | 0.00375 ± 0.00061 | 
G59A U69A | < 1e-05 |  | 
A14U A42C G51U | < 1e-05 |  | 
G32U C58A C70G | 0.000218 ± 7.9e-05 | 0.000221 ± 5.9e-05 | 
G38C G43C C68U | < 1e-05 |  | 
A6G G51U U56A C71U | < 1e-05 |  | < 1e-05
C50A G62C A64G | < 1e-05 |  | 
G29C U47C C70U | 8.05e-05 ± 1.3e-05 | 0.000105 ± 2.4e-05 | 
G13A A39G A52C | < 1e-05 |  | 
A14U G38A A53G G63U | < 1e-05 |  | 
A36C G43U G60U | < 1e-05 |  | 
U54C U55G C58A | 7.47e-05 ± 1.6e-05 | 0.000102 ± 1.2e-05 | 
U47C U49C G62A G63A | < 1e-05 |  | 
G35A G51A U54A G63U | < 1e-05 |  | 
G37U G44C U47C G63A | < 1e-05 | < 1e-05 | 
A12U A39G U47G U54A U69A | 9.73e-05 ± 2e-05 | 8.59e-05 ± 2.7e-05 | 
G32U G41U G60U C68A | < 1e-05 |  | 
A14U A36U G38C G62A | < 1e-05 |  | 
A6G C8U G37C U54C U69C | < 1e-05 | < 1e-05 | 
C10G C61G A64U | < 1e-05 | < 1e-05 | 

Variant | self-cleavage kobs at 640 uM GlcN6P (glucosamine-6-phosphate [1]) [s⁻¹] | self-cleavage kobs at 2500 uM GlcN6P (glucosamine-6-phosphate [2]) [s⁻¹] | self-cleavage kobs at 10000 uM GlcN6P (glucosamine-6-phosphate [3]) [s⁻¹]
U31G C58A G60C | < 1e-05 | < 1e-05 | 
A14G C61G G66U C67G | 0.000103 ± 2.7e-05 |  | 
U46A C70G | 0.000146 ± 4.1e-05 | 0.00037 ± 0.00011 | 0.000156 ± 3.1e-05
A6C G38A A52U C70U | < 1e-05 |  | 
G13U G40A | 5.97e-05 ± 1.3e-05 | 6e-05 ± 1.2e-05 | 0.000183 ± 3.6e-05
C11A C58U G59U G62U C70U | < 1e-05 |  | 
G13U G51U U55A | < 1e-05 |  | 
A14G A15G U31G U45G C61G | < 1e-05 | < 1e-05 | 
C8U A15C C16G U30C | < 1e-05 |  | 
G7A A39U A53C A64C | < 1e-05 |  | 
G13A G41A C50U G51U C67U | < 1e-05 |  | 
G13A C50G U55A C67U | 0.000168 ± 8.1e-05 | 7.15e-05 ± 2.6e-05 | 
G9U U30G U31C A39C A64G | < 1e-05 | < 1e-05 | 
U30A U46G U55G | 0.000157 ± 3.5e-05 | 0.000349 ± 6.6e-05 | 
C34U C50G U54A | 0.000235 ± 6.6e-05 | 0.000344 ± 0.0001 | 
C16U A39C U65G | 0.000131 ± 3.8e-05 | 8.33e-05 ± 2.6e-05 | 0.000837 ± 0.00011
G32C C67G U69G | < 1e-05 |  | < 1e-05
G7A A48C U69G | < 1e-05 | < 1e-05 | 
U31G C50A U56G U69G | 0.000115 ± 3.6e-05 | 7.11e-05 ± 1.8e-05 | 
G13A A53C | 4.8e-05 ± 1.4e-05 | 3.79e-05 ± 1.2e-05 | 0.000139 ± 1.3e-05
C8G U31A A39C G44U | < 1e-05 |  | 
A12C A33G G37U | < 1e-05 | < 1e-05 | 
G59A C61A | < 1e-05 | < 1e-05 | 
U47A A48U C70U | 0.000162 ± 5.1e-05 | 0.000141 ± 3.3e-05 | 0.000573 ± 0.00021
C8U G60A U65C | < 1e-05 |  | 
A14U C34A C70G | < 1e-05 | < 1e-05 | 

Variant | self-cleavage kobs at 640 uM GlcN6P (glucosamine-6-phosphate [1]) [s⁻¹] | self-cleavage kobs at 2500 uM GlcN6P (glucosamine-6-phosphate [2]) [s⁻¹] | self-cleavage kobs at 10000 uM GlcN6P (glucosamine-6-phosphate [3]) [s⁻¹]
C8U C70G | 0.0011 ± 0.00055 |  | 
A6G A52U G60U | < 1e-05 | < 1e-05 | 
A42C G60C C70U | < 1e-05 | < 1e-05 | < 1e-05
C50U U57A C68A U69G C71G | 8.81e-05 ± 3.4e-05 |  | 
A33U G38U | < 1e-05 | < 1e-05 | < 1e-05
C10A G35A A42U U57G | < 1e-05 |  | 
C11G U31G G35C C71U | < 1e-05 | < 1e-05 | 
A15C C16G U55C C61G | < 1e-05 |  | 
U45C U69G | 8.34e-05 ± 3.9e-05 |  | 
C16G U56A C71G | 7.67e-05 ± 1.7e-05 |  | 
C11U C58A G62U | < 1e-05 |  | 
U31C G44A C50A | < 1e-05 |  | 
C11G G44A U55A | < 1e-05 | < 1e-05 | 
G35C G41U A64G | < 1e-05 |  | 
G35U C58A A64U | < 1e-05 | < 1e-05 | 
A12G G21A G43U G59C C70U | < 1e-05 | < 1e-05 | 
G35U A39U G62A | < 1e-05 | < 1e-05 | 
G44A C61A G66A | < 1e-05 |  | 
G37A G63A C71A | < 1e-05 | < 1e-05 | 
U30G G37U G40U | < 1e-05 | < 1e-05 | 
G62A G63C C70A C71U | 5.14e-05 ± 2.3e-05 |  | 
A14G A15C U31C G40C U54A | 4.07e-05 ± 1e-05 | 0.000142 ± 3.5e-05 | 5.3e-05 ± 1.6e-05
G29U A39G A53U | 0.00124 ± 0.00019 |  | 
G29U A36U U69G | 0.00026 ± 0.00011 | 0.000178 ± 7.3e-05 | 
